In patent US20230192831A1 (published 2023):

Target: T1, human GREM1 (hGREM1-His; SEQ ID NO: 595) (human, UniProt O60565 25-184)
T1 construct: also called biotin-hGREM1-His; recombinant human GREM1 protein
T1 sequence: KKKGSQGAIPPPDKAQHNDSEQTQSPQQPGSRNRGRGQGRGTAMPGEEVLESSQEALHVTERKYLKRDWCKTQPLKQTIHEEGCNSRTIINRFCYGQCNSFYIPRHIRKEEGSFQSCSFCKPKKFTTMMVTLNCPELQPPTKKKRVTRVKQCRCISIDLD
Assay: competition ELISA, 100 pM biotin-hGREM1-His on plate-coated hBMP4
Procedure: Data were analyzed using a sigmoidal dose-response model within Prism™ software. […] The absorbance values of the wells containing the highest concentration for each antibody were used to determine the percent maximum blocking.

IC50: 7.2 pM
B1: H4H6243P (antibody, human IgG4, V domains shown)
VH: QVQLVQSGAEVKKPGASVKVSCKVSGYTLTELSMHWVRQAPGKGLEWMGGFDPEDGETIYAQKFQDRVTMTEDTSTDTAYMELSSLRSEDTAVYYCVTDDYEILPEYPYNMDVWGQGTTVTVSS
VL: DIQMTQSPSSLSASVGDRVTITCRASQSISTYLNWYQQKPGKAPKLLIYAASSLQSGVPSRFSGSGSGTDFTLTIRSLQPEDFATYYCQQSHITPFTFGPGTKVDIK
notes: H4H = human IgG4 Fc
